Measured values published in IntAct's records for PubMed 36435842.

B1: Golgi phosphoprotein 3 homolog sauron (Drosophila melanogaster (Fruit fly)), Q9VQ93 (parent)
chain: MNRSDGLVRRSVKPRENGGAEGGLNANTPDDNQDALDNLKDQEDNIDDGDSKETRLTLMEEVLLLGLKDKEGYTSFWNDCISSGLRGCILIELGLRGRVMIEKSGMRRRGLCTRKLILKSDQQTGDVLLDEALKHIKETDPPETVQSWIEYLSGETWNPLKLRYQLKNVRERLAKNLVEKGVLTTEKQNFLLFDMTTHPLSDNVVKCRLVKKIQDSVLSKWVNDPQRMDKRMLALIFLAHASDVIENAFAPLNDDDYEVAMKRVRELLDLDFEAESAKPNANEILWAVFMAFTK
partner: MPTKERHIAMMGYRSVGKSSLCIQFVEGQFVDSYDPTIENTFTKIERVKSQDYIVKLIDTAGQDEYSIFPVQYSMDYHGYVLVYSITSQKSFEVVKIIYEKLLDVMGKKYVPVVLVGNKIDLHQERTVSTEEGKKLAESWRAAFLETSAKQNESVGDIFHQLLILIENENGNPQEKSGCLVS

Variants of: B1
Conditions: with rheb_drome Rheb
For K167A;R170L, the “effect of a mutation on the interaction” value was “disrupting interaction strength”.
